28 molecules from patent US20240150440A1 (LUMEN BIOSCIENCE, published 2024) can be followed below.

Sequences and labels used below:
B1: PP1892 R2B-D5_smAKAP-C16S_S3B-C8_H6 (VHH)
chain: QVQLVESGGGLVQPGGSLRLSCAASGYADEINMVHWYRQAPGKGREFVAAIASGGSTFYADSVKGRFTISRDNAKNTVYLQMNSLKPEDTAVYYCAAIPRPSLSYAHDYAYWGQGTQVTVSSTVILEYAHRLSQDILSDALQQWASQVQLVESGGGLVQPGGSLRLSCAASGSIENIERMHWYRQAPGKQRELVAVIDSGGTTRYADSVKGRFTISRDNAKNTVYLQMNSLKPEDTAVYYCAAVWLTNAESTQEYWGQGTQVTVSSHHHHHH
B2: PP1894 S3B-C8_smAKAP-C16S_R2B-D5_H6 (VHH)
chain: QVQLVESGGGLVQPGGSLRLSCAASGSIENIERMHWYRQAPGKQRELVAVIDSGGTTRYADSVKGRFTISRDNAKNTVYLQMNSLKPEDTAVYYCAAVWLTNAESTQEYWGQGTQVTVSSTVILEYAHRLSQDILSDALQQWASQVQLVESGGGLVQPGGSLRLSCAASGYADEINMVHWYRQAPGKGREFVAAIASGGSTFYADSVKGRFTISRDNAKNTVYLQMNSLKPEDTAVYYCAAIPRPSLSYAHDYAYWGQGTQVTVSSHHHHHH
B3: PP1895 S3B-C8_smAKAP-C16S_S3B-C8_H6 (VHH)
chain: QVQLVESGGGLVQPGGSLRLSCAASGSIENIERMHWYRQAPGKQRELVAVIDSGGTTRYADSVKGRFTISRDNAKNTVYLQMNSLKPEDTAVYYCAAVWLTNAESTQEYWGQGTQVTVSSTVILEYAHRLSQDILSDALQQWASQVQLVESGGGLVQPGGSLRLSCAASGSIENIERMHWYRQAPGKQRELVAVIDSGGTTRYADSVKGRFTISRDNAKNTVYLQMNSLKPEDTAVYYCAAVWLTNAESTQEYWGQGTQVTVSSHHHHHH
B4: MBP-5HVZ-R5C-G6-H6 (VHH, not shown: large carriers; small tags and cut ends)
VHH: QVQLVESGGGLVQPGGSLRLSCAASGSIESINAIHWFRQAPGKAREEVAAITENDVDYYADSVKGRFTISRDNAKNTVYLQMNSLKPEDTAVYYCASLSSGYQYVGFRYWGQGTQVTVSS
B5: MBP-5HVZ-R5D-B2-H6 (VHH, not shown: large carriers; small tags and cut ends)
VHH: QVQLVESGGGLVQPGGSLRLSCAASGSIWSIAFMSWYRQAPGKGREWVAAITTGNDEAYADSVKGRFTISRDNAKNTVYLQMNSLKPEDTAVYYCAANTYERTPDGRTFSYWGQGTQVTVSS
B6: MBP-5HVZ-R5C-F5-H6 (VHH, not shown: large carriers; small tags and cut ends)
VHH: QVQLVESGGGLVQPGGSLRLSCAASGSYFKINSLAWFRQAPGKAREVVAAIHSGDGTNYADSVKGRFTISRDNAKNTVYLQMNSLKPEDTAVYYCAADQAWVRAGTYDYWGQGTQVTVSS
B7: MBP-5HVZ-R5C-F3-H6 (VHH, not shown: large carriers; small tags and cut ends)
VHH: QVQLVESGGGLVQPGGSLRLSCAASGTIPSINYTAWYRQAPGKQRELVASLTSGDNRYYTDSVKGRFTISRDNAKNTVYLQMNSLKPEDTAVYYCNAKTVGSSYRDSYNYWGQGTQVTVSS
B8: MBP-5HVZ-R5C-F6-H6 (VHH, not shown: large carriers; small tags and cut ends)
VHH: QVQLVESGGGLVQPGGSLRLSCAASGQTNSILAMHWYRQAPGKQREAVATITSGSNSTYADSVKGRFTISRDNAKNTVYLQMNSLKPEDTAVYYCAARNGKLSPKANQRLYWGQGTQVTVSS
B9: MBP-5HVZ-R5D-A1-H6 (VHH, not shown: large carriers; small tags and cut ends)
VHH: QVQLVESGGGLVQPGGSLRLSCAASGSISSYNAMHWFRQAPGKQREWVAGLTSSGSDGYVDSVKGRFTISRDNAKNTVYLQMNSLKPEDTAVYYCNAFSYHTYSRYDFWGQGTQVTVSS
B10: MBP-5HVZ-R5E-G2-H6 (VHH, not shown: large carriers; small tags and cut ends)
VHH: QVQLVESGGGLVQPGGSLRLSCAASGTIKSINAMHWFRQAPGKAREFVASIGSNGAKSYSDSVKGRFTISRDNAKNTVYLQMNSLKPEDTAVYYCTALITVAESDDYDYWGQGTQVTVSS
B11: MBP-R5D-D4-H6 (VHH, not shown: large carriers; small tags and cut ends)
VHH: QVQLVESGGGLVQPGGSLRLSCAASGSDFTINAMHWFRQAPGKQREFVATITSTSSTAYRDSVKGRFTISRDNAKNTVYLQMNSLKPEDTAVYYCAAFAVRDADTAGWTARDYWGQGTQVTVSS
B12: MBP-5HVZ-R5D-G6-H6 (VHH, not shown: large carriers; small tags and cut ends)
VHH: QVQLVESGGGLVQPGGSLRLSCAASGRILAANIVHWYRQAPGKNREGVAGITSGGSTYYADSVKGRFTISRDNAKNTVYLQMNSLKPEDTAVYYCAAKPLGSPDDFDYWGQGTQVTVSS
B13: MBP-5HVZ-R5D-E4-H6 (VHH, not shown: large carriers; small tags and cut ends)
VHH: QVQLVESGGGLVQPGGSLRLSCAASGQISSNNGMHWFRQAPGKRREFVATATTGGTTSYADSVKGRFTISRDNAKNTVYLQMNSLKPEDTAVYYCTALLMSRAGEFDYWGQGTQVTVSS
B14: MBP-5HVZ-R5D-F3-H6 (VHH, not shown: large carriers; small tags and cut ends)
VHH: QVQLVESGGGLVQPGGSLRLSCAASGSQLSINYVHWFRQAPGKQREFVAAITITGSSYYADSVKGRFTISRDNAKNTVYLQMNSLKPEDTAVYYCNTVDRTDNYGYDYWGQGTQVTVSS
B15: MBP-5HVZ-R5D-G1-H6 (VHH, not shown: large carriers; small tags and cut ends)
VHH: QVQLVESGGGLVQPGGSLRLSCAASGSIFGINDVHWFRQAPGKEREFVATITNGLSARYKDSVKGRFTISRDNAKNTVYLQMNSLKPEDTAVYYCAAQVYITTYELYDYWGQGTQVTVSS
B16: PP914 MBP-5HVZ-S3a-H1-H6 (VHH)
VHH: QVQLVESGGGLVQPGGSLRLSCAASGGIYSPYSMHWFRQAPGKAREWVAGIVGGGGTTYSDSVKGRFTISRDNAKNTVYLQMNSLKPEDTAVYYCNANYQEYDEYDYWGQGTQVTVSS
notes: Form: Dimer
B17: PP907 MBP-5HVZ-S1b-E11-H6 (VHH)
VHH: QVQLVESGGGLVQPGGSLRLSCAASGSYASIASMHWFRQAPGKEREFVAGVTSGGSTNYGDSVKGRFTISRDNAKNTVYLQMNSLKPEDTAVYYCNALAGANYESQWEEYNYWGQGTQVTVSS
notes: Form: Dimer
B18: PP1145 MBP-5HVZ-PAPA-R2d-A6-H6 (VHH)
VHH: B17 VHH with Y28G, A32G, S33A, E44G, F47W, G50S, V51I, G54A, S56N, N58Y
notes: Form: Dimer
B19: PP906 MBP-5HVZ-S1b-E7-H6 (VHH)
VHH: QVQLVESGGGLVQPGGSLRLSCAASGGEFSDNGLHWFRQAPGKQREFVATASSDGSTQYRDSVKGRFTISRDNAKNTVYLQMNSLKPEDTAVYYCTALLMSSAGEYDVWGQGTQVTVSS
notes: Form: Dimer
B20: PP1146 MBP-5HVZ-PAPA-R2d-D3-H6 (VHH)
VHH: QVQLVESGGGLVQPGGSLRLSCAASGHIFSINNAAWVRQAPGKSREGVATIHSGGGTYYSDSVKGRFTISRDNAKNTVYLQMNSLKPEDTAVYYCNAEVSTGAGSRGRVSDVYWGQGTQVTVSS
notes: Form: Dimer
B21: PP1134 MBP-4B0F-PAPA-R2d-D3-H6 (VHH)
VHH: B20 VHH
notes: Form: Heptamer
B22: PP1158 MPB-scTRP-PAPA-R2d-D3-H6 (VHH)
VHH: B20 VHH
notes: Form: Trimer
B23: PP1181 R2d-D3-PP7-H6 (VHH)
VHH: B20 VHH
B24: PP1133 MBP-4B0F-PAPA-R2d-A6-H6 (VHH)
VHH: B17 VHH with Y28G, A32G, S33A, E44G, F47W, G50S, V51I, G54A, S56N, N58Y
notes: Form: Heptamer
B25: PP1157 MPB-scTRP-PAPA-R2d-A6-H6 (VHH)
VHH: B17 VHH with Y28G, A32G, S33A, E44G, F47W, G50S, V51I, G54A, S56N, N58Y
notes: Form: Trimer
B26: PP1144 MBP-5HVZ-PAPA-R2c-F6-H6 (VHH)
VHH: QVQLVESGGGLVQPGGSLRLSCAASGRILAANIVHWYRQAPGKEREGVAGITTGGSNYYSDSVKGRFTISRDNAKNTVYLQMNSLKPEDTAVYYCNALGLGSASGSYESWGQGTQVTVSS
notes: Form: Dimer
B27: PP1132 MBP-4B0F-PAPA-R2c-F6-H6 (VHH)
VHH: B26 VHH
notes: Form: Heptamer
B28: PP1156 MPB-scTRP-PAPA-R2c-F6-H6 (VHH)
VHH: B26 VHH
notes: Form: Trimer

Residue numbers refer to the chain shown, from its start. Names and notes keep the numbering of the source.

The term Kd denotes the equilibrium constant for the complex coming apart. Usually koff stands for a measure of how fast the partners let go of each other. One may read the kon as the second-order rate constant of association. What is called IC50 is the concentration at which inhibition is half-maximal. Usually EC50 stands for the concentration needed to bring the measured effect to its halfway point. High values mean a less potent agent, low ones a more potent agent.

One experiment deals with T1, recombinant SARS-CoV-2 RBD with C-terminal AviTag (SARS-CoV-2, UniProt P0DTC2 319-541).
Test: not given
As to B1, the Kd stood at 0.33 nM, the off-rate (koff) worked out at 0.000411 s⁻¹ and the kon worked out at 1.23e+06 M⁻¹ s⁻¹. For the molecule B2, the Kd is 0.44 nM, the koff came to 0.000599 s⁻¹ and the kon was 1.34e+06 M⁻¹ s⁻¹.

For the molecule B3, the dissociation constant Kd was 2.06 nM, the koff is 0.00761 s⁻¹ and the kon was determined as 3.69e+06 M⁻¹ s⁻¹.

In a further experiment the target is T1, recombinant SARS-CoV-2 RBD with ….
Test: not given
This is another data set of the same source.
With B4, the IC50 came to 8.7 nM. Turning to B5, the Kd was found to be 1.21 nM. Take B6: the 50% inhibitory concentration (IC50) was 3.9 nM and the equilibrium dissociation constant (Kd) came to 3.13 nM. As to B7, the IC50 came out at 11.9 nM and the Kd turned out to be 11.3 nM.

Regarding B8, the 50% inhibitory concentration (IC50) turned out to be 110 nM. As to B9, the IC50 was determined as 12.6 nM.

For another experiment the target is unchanged.
Test: not given
This is another data set of the same source.
With B10, the Kd came out at 3.14 nM. Turning to B11, the Kd turned out to be 100 nM.

B12: the IC50 amounted to 3.2 nM and the Kd came out at 31.3 nM. Take B13: the IC50 is 13.7 nM and the Kd was determined as 9.34 nM. As for B14, the IC50 was 29.3 nM. On to B15, for which the half-inhibitory concentration (IC50) was 12.4 nM.

For another experiment, the target named is SARS-COV-2 Wuhan Reference RBD (SARS-CoV-2, UniProt P0DTC2 319-541). Description: ELISA, RBD coated.
With B16, the EC50 is 3.24 nM. Regarding B17, the EC50 was 3 nM. In the case of B18, the response was half-maximal at 1.33 nM (EC50).

Consider B19, for which the EC50 was 2 nM.

For the next experiment, the target named is T1, recombinant SARS-CoV-2 RBD with …. Description: BLI, biotinylated RBD on streptavidin biosensors [Cont. 6].
For the molecule B19, the Kd is 15.5 nM.

A further experiment shares this target. As to the kind of experiment: ELISA, competition with coated ACE2-Fc for RBD [Cont. 1]. Background: In an ELISA, binding on a coated surface is turned into a signal by an enzyme label.
For B20, the IC50 turned out to be 2.1 nM. For the molecule B21, the IC50 was found to be 27.7 nM. Turning to B22, the IC50 was determined as 43.4 nM. For the molecule B23, the concentration for half-maximal inhibition (IC50) is 282 nM. Regarding B24, the half-inhibitory concentration (IC50) was found to be 11 nM. In the case of B25, the IC50 was found to be 4.7 nM. On the same count and under the same terms, as for B18, the figure is 3.8 nM. On to B26, for which the IC50 turned out to be 3.2 nM. With B27, the IC50 stood at 158 nM.

Regarding B28, the IC50 turned out to be 165 nM.

For the next experiment the target is unchanged. As to the kind of experiment: ELISA, competition with coated ACE2-Fc for RBD [Cont. 6].
In the case of B19, the IC50 turned out to be 35.7 nM.

The target is the same in the next experiment. As to the kind of experiment: ELISA, competition with coated ACE2-Fc for RBD [Cont. 7].
For the molecule B16, the IC50 was found to be 4.3 nM. As to B17, the 50% inhibitory concentration (IC50) was 15.9 nM.
